Data from patent US20210388087A1 (Chugai, published 2021).
Where no end group is shown, it is not given here.

T1: Human CD3eg linker (human)
T1 construct: Single chain: CD3 epsilon and gamma subunits joined by a 29-mer linker, Flag-tag at the C-terminus; also called recombinant human CD3
T1 chain: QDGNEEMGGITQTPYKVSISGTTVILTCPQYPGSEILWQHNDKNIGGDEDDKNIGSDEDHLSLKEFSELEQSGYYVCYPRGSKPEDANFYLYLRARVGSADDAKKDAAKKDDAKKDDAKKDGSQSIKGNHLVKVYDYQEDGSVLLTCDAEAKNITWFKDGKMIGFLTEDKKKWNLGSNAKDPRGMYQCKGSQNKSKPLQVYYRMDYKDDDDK

T2: Biotin-labeled CD3 epsilon peptide antigen (human, also: biotin-labeled, site not given here)
T2 construct: also called CD3 peptide
T2 peptide: QDGNEEMGGITQTPY

T3: cyno CD137-Fc (cynomolgus monkey; human, limits assumed, biotin-labeled)
T3 construct: whole entry 92 named; also called biotin-labeled cynomolgus monkey CD137 fused to human IgG1 Fc fragment; not shown: human IgG1 Fc fragment
T3 chain: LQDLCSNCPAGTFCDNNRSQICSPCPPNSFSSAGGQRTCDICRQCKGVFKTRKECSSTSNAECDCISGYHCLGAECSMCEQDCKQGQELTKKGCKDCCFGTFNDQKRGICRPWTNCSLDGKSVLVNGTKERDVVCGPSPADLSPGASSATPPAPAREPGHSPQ


How the values were obtained:
[1] = biological target: human CD137 expressed on cells (human, UniProt Q07011 24-255); assay: cell-based or functional assay
[2] = biological target: T4, Extracellular domain (24-186) of human CD137 (human, UniProt Q07011 24-186); assay: complex formation, gel filtration
T4 construct: Fc cleaved off; also called hCD137; CD137 extracellular domain

Human CD3eg linker = biological target: T1, Human CD3eg linker; assay: SPR Biacore T200, 37 C, Ab captured on anti-human Fc, antigen as analyte
Human CD137 ECD = biological target: T5, Human CD137 ECD (human); assay: as above
T5 construct: also called human CD137 extracellular domain; recombinant human CD137

human CD137-Fc [3] = biological target: T6, human CD137-Fc (human, biotin-labeled); assay: bead ELISA on biotin-human CD137-Fc, free CD3e peptide vs free Fc
T6 construct: if 90 already holds the Fc, drop the second piece; also called biotin-labeled human CD137 fused to human IgG1 Fc fragment; biotin-human CD137-Fc; not shown: human IgG1 Fc fragment

human CD137-Fc [4] = biological target: T6, human CD137-Fc; assay: bead ELISA on biotin-human CD137-Fc, 0 pmol free CD3e peptide
[5] = biological target: T2, Biotin-labeled CD3 epsilon peptide …; assay: bead ELISA, IgG on biotinylated CD3 epsilon peptide, luminescence
human CD137-Fc [6] = biological target: T6, human CD137-Fc; assay: bead ELISA on biotin-human CD137-Fc with 125 pmol/well free CD3e peptide as competitor;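 also: Streptavidin-coated magnetic beads in blocking buffer as the capture surface, well signal read as fluorescence 2 min after adding APS-5 substrate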
human CD137-Fc [7] = biological target: T6, human CD137-Fc; assay: bead ELISA on biotin-human CD137-Fc with 62.5 pmol free human Fc (control competitor)
human CD137-Fc [8] = biological target: T6, human CD137-Fc; assay: bead ELISA on biotin-human CD137-Fc with 62.5 pmol free CD3e peptide as competitor
human CD137-Fc [9] = biological target: T6, human CD137-Fc; assay: bead ELISA on biotin-human CD137-Fc, 125 vs 0 pmol free CD3e peptide;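 also: target captured on streptavidin-coated magnetic beads, signal read as fluorescence 2 min after adding APS-5 substrate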
cyno CD137-Fc = biological target: T3, cyno CD137-Fc; assay: bead ELISA, IgG on biotinylated antigen, luminescence;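 also: biotinylated antigen captured on streptavidin magnetic beads, then incubated with purified IgG at 50 ng/µL for 1 h at room temperature before detection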
human CD137-Fc [10] = biological target: T6, human CD137-Fc; assay: as above
[11] = biological target: T7, biotin-labeled human CD137 fused to human IgG1 Fc fragment (human, UniProt Q07011 24-186, biotin-labeled); assay: ELISA on streptavidin beads, purified IgG
T7 construct: also called human CD137-Fc; biotin-human CD137-Fc; not shown: human IgG1 Fc fragment

Signal decrease (human CD137-Fc [3]) [%] | ELISA signal (human CD137-Fc [4]) | RLU [5] [RLU] | S/N ratio (CD3 peptide/non coating) [5] | ELISA signal (human CD137-Fc [6]) | ELISA signal (human CD137-Fc [7]) | ELISA signal (human CD137-Fc [8]) | Signal decrease (human CD137-Fc [9]) [%] | RLU (cyno CD137-Fc) [RLU] | S/N ratio (cyno CD137-Fc/Fc) (cyno CD137-Fc) | RLU (human CD137-Fc [10]) [RLU] | S/N ratio (human CD137-Fc/Fc) (human CD137-Fc [10]) | Binder | other results
 |  |  |  |  |  |  |  |  |  |  |  | GPC3/CD137×CD3 trispecific antibody (other) VH 1: QVQLQQWGAGLLKPSETLSLTCAVYGGSFSGYYWSWIRQSPEKGLEWIGEINHGGYVTYNPSLESRVTISVDTSKNQFSLKLSSVTAADTAVYYCARDYGPGNYDWYFDLWGRGTLVTVSS VL 1: EIVLTQSPATLSLSPGERATLSCRASQSVSSYLAWYQQKPGQAPRLLIYDASNRATGIPARFSGSGSGTDFTLTISSLEPEDFAVYYCQQRSNWPPALTFGGGTKVEIK VH 2: QVQLVESGGGLVQPGRSLRLSCAASGFTFSNAWMHWVRQAPGKGLEWVAQIKDRANSYNTYYAESVKGRFTISRDDSKNSIYLQMNSLKTEDTAVYYCRYVHYTTYAGSSFSYGVDAWGQGTTVTVSS VL 2: DIVMTQSPLSLPVTPGEPASISCRSSQPLVHSNRNTYLHWYQQKPGQAPRLLIYKVSNRFSGVPDRFSGSGSGTDFTLKISRVEAEDVGVYYCGQGTQVPYTFGQGTKLEIK VH 3: QVQLVQSGAEVKKPGASVTVSCKASGYTFTDYEMHWIRQPPGEGLEWIGAIDGPTPDTAYSEKFKGRVTLTADKSTSTAYMELSSLTSEDTAVYYCTRFYSYTYWGQGTLVTVSS VL 3: DIVMTQSPLSLPVTPGEPASISCRSSQPLVHSNRNTYLHWYQQKPGQAPRLLIYKVSNRFSGVPDRFSGSGSGTDFTLKISRVEAEDVGVYYCGQGTQVPYTFGQGTKLEIK | Luminescence against CD137 positive cells relative to that against GPC3 positive cells, 1 nM [1]: ~107%; Luminescence against CD137 positive cells relative to that against GPC3 positive cells, 10 nM [1]: ~128%
 |  |  |  |  |  |  |  |  |  |  |  | H0868L0581 Fab (Fab, V domains shown, Fab made by limited Lys-C digestion of the bivalent antibody; also called H0868L581; Fab fragment of H0868L0581) VH: QVQLVESGGGLVQPGRSLRLSCAASGFKFSNVWMHWVRQAPGKGLEWVAQIKDKYNAYAAYYAPSVKGRFTISRDDSKNSIYLQMNSLKTEDTAVYYCHYVHYASASTLLPAFGVDAWGQGTTVTVSS VL: DIVMTQSPLSLPVTPGEPASISCQPSQEVVHMNRNTYLHWYQQKPGQAPRLLIYKVSNRFPGVPDRFSGSGSGTDFTLKISRVEAEDVGVYYCAQGTSHPFTFGQGTKLEIK | binding result [2]: binds
 |  |  |  |  |  |  |  |  |  |  |  | GPC3/CD137xCD3 (bispecific antibody, V domains shown, Fc gamma R silent Fc; also called GPC3/CD137 x CD3 trispecific antibody (2+1)) VH 1: QVQLQQWGAGLLKPSETLSLTCAVYGGSFSGYYWSWIRQSPEKGLEWIGEINHGGYVTYNPSLESRVTISVDTSKNQFSLKLSSVTAADTAVYYCARDYGPGNYDWYFDLWGRGTLVTVSS VL 1: EIVLTQSPATLSLSPGERATLSCRASQSVSSYLAWYQQKPGQAPRLLIYDASNRATGIPARFSGSGSGTDFTLTISSLEPEDFAVYYCQQRSNWPPALTFGGGTKVEIK VH 2: QVQLVESGGGLVQPGRSLRLSCAASGFTFSNAWMHWVRQAPGKGLEWVAQIKDRANSYNTYYAESVKGRFTISRDDSKNSIYLQMNSLKTEDTAVYYCRYVHYTTYAGSSFSYGVDAWGQGTTVTVSS VL 2: DIVMTQSPLSLPVTPGEPASISCRSSQPLVHSNRNTYLHWYQQKPGQAPRLLIYKVSNRFSGVPDRFSGSGSGTDFTLKISRVEAEDVGVYYCGQGTQVPYTFGQGTKLEIK VH 3: QVQLVQSGAEVKKPGASVTVSCKASGYTFTDYEMHWIRQPPGEGLEWIGAIDGPTPDTAYSEKFKGRVTLTADKSTSTAYMELSSLTSEDTAVYYCTRFYSYTYWGQGTLVTVSS VL 3: DIVMTQSPLSLPVTPGEPASISCRSSQPLVHSNRNTYLHWYQQKPGQAPRLLIYKVSNRFSGVPDRFSGSGSGTDFTLKISRVEAEDVGVYYCGQGTQVPYTFGQGTKLEIK | Kd (Human CD3eg linker): 19.7 nM; koff (Human CD3eg linker): 0.00161 s⁻¹; kon (Human CD3eg linker): 81800 M⁻¹ s⁻¹; Kd (Human CD137 ECD): 37.7 nM; koff (Human CD137 ECD): 0.0206 s⁻¹; kon (Human CD137 ECD): 547000 M⁻¹ s⁻¹
92.5 | 61400 | 191000 | 161 | 2060 | 172000 | 12800 | 96.7 | 5090 | 1.56 | 77800 | 23.8 | DXDU01_3#019 (antibody, V domains shown, Human IgG1; light chain GLS3000 (kappa); also called dBBDu125) VH: QVQLVESGGGLVQPGRSLRLSCAASGFTFSIAWMHWVRQAPGKGLEWVAQIKDKVNGYTAYYAESVKGRFTISRDDSKNSIYLQMNSLKTEDTAVYYCRYVHYAAYYDVLGYGGVDAWGQGTTVTVSS VL: DIVMTQSPLSLPVTPGEPASISCRSSQSLVHSNRNTYLHWYQQKPGQAPRLLIYKVSNRFSGVPDRFSGSGSGTDFTLKISRVEAEDVGVYYCGQGTQVPYTFGQGTKLEIK | 
 |  |  |  |  |  |  |  |  |  |  |  | dBBDu127 (antibody, human IgG1, V domains shown, human IgG1; GLS3000 light chain; also called DXDU01_3 #051; DXDU01_3_#051) VH: QVQLVESGGGLVQPGRSLRLSCAASGFTFSNAWMHWVRQAPGKGLEWVAQIKDRGQQYNAYYAPSVKGRFTISRDDSKNSIYLQMNSLKTEDTAVYYCHYVHYASASSVLPGYGVDAWGQGTTVTVSS VL: DIVMTQSPLSLPVTPGEPASISCRSSQSLVHSNRNTYLHWYQQKPGQAPRLLIYKVSNRFSGVPDRFSGSGSGTDFTLKISRVEAEDVGVYYCGQGTQVPYTFGQGTKLEIK | binding result [11]: binds
91.6 | 3230 | 169000 | 145 | 2200 | 128000 | 10800 | 32 | 10900 | 3.73 | 38100 | 13.1 | DXDU01_3#051 (antibody, V domains shown, Human IgG1; light chain GLS3000 (kappa); also called dBBDu127) VH: QVQLVESGGGLVQPGRSLRLSCAASGFTFSNAWMHWVRQAPGKGLEWVAQIKDRGQQYNAYYAPSVKGRFTISRDDSKNSIYLQMNSLKTEDTAVYYCHYVHYASASSVLPGYGVDAWGQGTTVTVSS VL: DIVMTQSPLSLPVTPGEPASISCRSSQSLVHSNRNTYLHWYQQKPGQAPRLLIYKVSNRFSGVPDRFSGSGSGTDFTLKISRVEAEDVGVYYCGQGTQVPYTFGQGTKLEIK | 
92.3 | 2750 | 182000 | 149 | 1840 | 117000 | 9020 | 33 | 6200 | 3.27 | 32800 | 17.3 | DADU01_3#018 (antibody, V domains shown, Human IgG1; light chain GLS3000 (kappa); also called dBBDu123) VH: QVQLVESGGGLVQPGRSLRLSCAASGFTFSNAWMHWVRQAPGKGLEWVAQIKDRANSYNAYYAPSVKGRFTISRDDSKNSIYLQMNSLKTEDTAVYYCHYVHYSAASTLLPSFGVDAWGQGTTVTVSS VL: DIVMTQSPLSLPVTPGEPASISCRSSQSLVHSNRNTYLHWYQQKPGQAPRLLIYKVSNRFSGVPDRFSGSGSGTDFTLKISRVEAEDVGVYYCGQGTQVPYTFGQGTKLEIK | 
91.1 | 3610 | 165000 | 141 | 1830 | 108000 | 9660 | 49.4 | 19100 | 8.09 | 24200 | 10.2 | DXDU01_3#094 (antibody, V domains shown, Human IgG1; light chain GLS3000 (kappa); also called dBBDu121) VH: QVQLVESGGGLVQPGRSLRLSCAASGFTFSNAWMHWVRQAPGKGLEWVAQIKDKGNAYAAYYAPSVKGRFTISRDDSKNSIYLQMNSLKTEDTAVYYCHYVHYASAAGGLPGFGVDAWGQGTTVTVSS VL: DIVMTQSPLSLPVTPGEPASISCRSSQSLVHSNRNTYLHWYQQKPGQAPRLLIYKVSNRFSGVPDRFSGSGSGTDFTLKISRVEAEDVGVYYCGQGTQVPYTFGQGTKLEIK | 
81.3 | 116000 | 198000 | 146 | 2610 | 81000 | 15100 | 97.8 | 1210 | 0.687 | 95300 | 54.1 | DADU01_3#001 (antibody, V domains shown, Human IgG1; light chain GLS3000 (kappa); also called dBBDu126; dBBDu_126) VH: QVQLVESGGGLVQPGRSLRLSCAASGFTFSIAWMHWVRQAPGKGLEWVAQIKDRVNAYEAYYAPSVKGRFTISRDDSKNSIYLQMNSLKTEDTAVYYCRYVHYASYYDLLGYGGVDAWGQGTTVTVSS VL: DIVMTQSPLSLPVTPGEPASISCRSSQSLVHSNRNTYLHWYQQKPGQAPRLLIYKVSNRFSGVPDRFSGSGSGTDFTLKISRVEAEDVGVYYCGQGTQVPYTFGQGTKLEIK | 
